Experimental data reported in the supplement of paper PMC10567573.
± gives the standard deviation.

Assay: protein stability index of a GFP-peptide fusion (GPS, HEK-293T) (PSI 1-6); higher = more stable
Settings: c terminus: a fixed tail appended
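Also: 24-mer peptide tiles fused after GFP, lentivirally expressed, FACS-sorted into six equal bins by GFP/DsRed ratio, decoded by Illumina sequencing, PSI is the read-weighted mean bin number.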

Sequence	protein stability index (treatment: DMSO)	protein stability index (treatment: MLN4924 1 uM, 8 h)
GSIEYSCPASNECEITKRRRKACQ [ESRRA]	4.88 ± 0.23	4.97 ± 0.25
GSLRTLELGSESQGASESQAPGEE [HDAC6]	5.52 ± 0.29	5.58 ± 0.22
GSRTPGRSELVEGCGWRCPEHGDR [TRIM14]	4.19 ± 0.3	4.48 ± 0.074
GSSETNLLQHLLEACGRCEEVPEA [PYCR3]	3.74 ± 0.19	4.19 ± 0.14
GSSGASDQDTLAPLPHPGAAPWPM [DVL3]	4.2 ± 0.15	4.3 ± 0.09
GSSSDNRTYRYSNRYCGGPGPPIT [DYRK1B]	2.57 ± 0.42	2.75 ± 0.19
GSVGAAICGLQQDEEVSSLTCDAL [CCND2]	4.54 ± 0.35	4.63 ± 0.25
GTASSGSSRLPQPSGAGKTVVGVP [ZC2HC1A]	4.74 ± 0.41	4.72 ± 0.12
GTATRQNNWPPLPSFCPVQPCFFQ [SCAMP3]	2.42 ± 0.16	2.45 ± 0.19
GTEEKKKLIRDFDEKQQEANETLA [VTI1B]	5.57 ± 0.22	5.51 ± 0.15
GTWDDAFATFCGGLAANGALQRLD [LRRC45]	3.2 ± 0.052	3.12 ± 0.28
GVDPQQKMELGIDLLAYGAKAELP [MYOZ1]	3.95 ± 0.083	4.05 ± 0.16
GVEIDEINVYGNTALHIACYNGQD [ANKRD44]	3.58 ± 0.19	3.55 ± 0.33
GVGFATRKVAGMAKPNMIISVNGD [FABP4]	3.02 ± 0.28	3.04 ± 0.47
GVNPDQVEKIRKLPNTLLRKDKDV [ANKRD40]	4.63 ± 0.35	4.73 ± 0.26
GVRCNTPAMGLQKKLRLNGGRNPY [LOXL2]	2.75 ± 0.12	2.95 ± 0.34
GVRIVSRGRTQLFSLNPRSGSLIT [PCDHGA10]	2.08 ± 0.2	2.21 ± 0.25
GVRVSVPCPSTTCCRACSVSFSTG [BET1L]	2.49 ± 0.38	2.35 ± 0.31
GVWAPPAPGFGEDVPNRLVDNIDM [BEX5]	4.52 ± 0.57	4.25 ± 0.55
GWGTVFSLESEEEEYPGITAEDSN [BCL2L13]	5.05 ± 0.23	5.03 ± 0.38
GYDDDNHDYIVRSGERWLERYEID [DYRK1B]	4.11 ± 0.27	4.03 ± 0.22
GYSGTSDRIRFTVNRRISIVGFGL [BTBD1]	2.83 ± 0.27	2.87 ± 0.36

Sequence	protein stability index (treatment: DMSO)	protein stability index (treatment: MLN4924 1 uM, 8 h)
HAEIIAWIRICRPGSIIGPQQHFL [CDC14A]	3.91 ± 0.99	2.74 ± 1.6
HAPGVPRILVGNRLHLAFKRQVPT [RAB40C]	2.69 ± 0.17	2.72 ± 0.13
HDYIVRSGERWLERYEIDSLIGKG [DYRK1B]	2.95 ± 0.49	3.11 ± 0.38
HEGKTDSERTDTAADGETTATEEL [EPB41L3]	5.65 ± 0.34	5.51 ± 0.21
HESEGGRTPLMKAARAGHVCTVQF [ANKRD17]	2.71 ± 0.28	2.6 ± 0.33
HETESTSDKETDIDDRYGDLDSRT [CDS1]	5.42 ± 0.19	5.6 ± 0.22
HFRHPKRSVSLSMRKSGAMKKGGI [BNIP3L]	3.51 ± 0.36	3.32 ± 0.35
HHAKDSEGVEIMLGVCASGLLIYR [EPB41L3]	2.12 ± 0.69	2.14 ± 0.61
HHLPLPDNWKSQVEPETRAVIRWM [CPN1]	2.62 ± 0.34	2.77 ± 0.44
HKSAFNDWFSGHLNFQIEHHLFPT [FADS1]	2.11 ± 0.18	2.07 ± 0.41
HNNNNNCEENEQSLPPPAGLNSSW [BNIP3L]	4.96 ± 0.17	5.09 ± 0.078
HPRALPPDARPHRRPHELLPVGGR [HAGHL]	4.48 ± 0.12	4.33 ± 0.23
HQDVPSQDDSKPTQRQFTILNFND [AASDHPPT]	4.59 ± 0.27	4.76 ± 0.32
HQHEEIQNVRNHIHSCFSDVTCFL [ATL3]	2.26 ± 0.15	2.26 ± 0.13
HQLLEPIRDFEARKCPVHGKTMEL [TRIM29]	3.89 ± 0.17	3.84 ± 0.17
HQRDGTLGALHTSSKPTALPSASS [SASS6]	4.57 ± 0.25	4.55 ± 0.12
HSKLTDREKTNICYLSFPDSNSGC [DENND6A]	3.32 ± 0.26	3.39 ± 0.3
HSVTGFLCEPDPVHFSEAIEKFIR [ALG2]	2.8 ± 0.21	2.93 ± 0.26
HTFKTRFTQPLLPAFTVWCGSFQV [FSD1]	3.1 ± 0.55	2.69 ± 1.1
HTHPSACQGQRLFEKLLQLTSQNI [PLD5]	2.21 ± 0.21	1.84 ± 0.37
HVKFRSLSMVSECLFSLINGDDMF [MCOLN1]	2.84 ± 0.45	2.61 ± 0.45
HVLLEGEGLGQSLGNFKDDLLNVC [TRIM29]	3.06 ± 0.041	3.1 ± 0.17

Sequence	protein stability index (treatment: DMSO)	protein stability index (treatment: MLN4924 1 uM, 8 h)
HVTLTLPPTQLEVNLEEIPGEGLL [C2CD2L]	4.07 ± 0.18	3.96 ± 0.42
HVTNAMVLVNVLQAIYVIDFFWNE [DHCR7]	3.08 ± 0.17	2.99 ± 0.34
HWACKRNHGQVVSYLLKSGADKEI [ANKRD40]	2.59 ± 0.24	2.66 ± 0.28
HYAFRIFDFDDDGTLNREDLSRLV [CIB1]	2.55 ± 0.24	2.78 ± 0.31
HYDLLNLNGTKVAEGHKASFCLED [LOXL2]	4.12 ± 0.5	4.26 ± 0.34
ICDLARSIDFNKDGHIDINEFLEA [PPEF2]	3.6 ± 0.31	4.04 ± 0.21
IDYYESKIRKIHTQRQYKEDESQS [CEP70]	4.08 ± 0.084	4.2 ± 0.1
IEAGAHMDATNAFKKTAYELLDEK [FEM1A]	4.79 ± 0.21	5.04 ± 0.34
IEDLRAQIFANTVDNARIVLQIDN [KRT18]	2.6 ± 0.24	2.67 ± 0.35
IETEPTVHHLPLSTEKVVQETVLV [EPB41L3]	4 ± 0.11	3.84 ± 0.28
IETLRLAKNYIWALSEILRIGKRP [NEUROD6]	3.08 ± 0.73	2.65 ± 0.57
IFCRDTQTVFQKKNLQQTTNTTST [IQUB]	3.32 ± 0.34	3.66 ± 0.26
IFIIQACRGNQHDVPVIPLDVVDN [CASP6]	2.71 ± 0.59	2.49 ± 0.7
IGGVATVVCQPNEFIMPDSAVVGD [SEPHS2]	3.72 ± 0.34	3.76 ± 0.44
IGIPLFFLELAVGQRIRRGSIGVW [SLC6A17]	2.51 ± 0.34	2.28 ± 0.23
IGVAGNHWDGYSKGVNRKLGRTGL [FUT8]	3.1 ± 0.16	2.9 ± 0.18
IHDALLEAVTCGNTEVPARNLYAY [PTPRD]	2.29 ± 0.35	2.39 ± 0.14
IHSHHDGVLRPTVRPGTPPDFILK [CTDNEP1]	3.66 ± 0.18	3.72 ± 0.21
IITIGYNVYHSYDLPWFRTLSWYF [CDS2]	3.08 ± 0.23	3.2 ± 0.27
IITSRILVDQVTGVSRGVGFIRFD [ELAVL3]	2.42 ± 0.53	2.53 ± 0.28
IIVSIVHSVFEFLAFKNDIQFWNS [CLPTM1]	3.5 ± 0.83	2.75 ± 0.65
